# Substitutions are numbered along the chain they refer to.
# T1: mouse FcγRII (mouse, UniProt P08101 30-210)
# T1 construct: also called mFcγRII; mFcgRII
# T1 sequence: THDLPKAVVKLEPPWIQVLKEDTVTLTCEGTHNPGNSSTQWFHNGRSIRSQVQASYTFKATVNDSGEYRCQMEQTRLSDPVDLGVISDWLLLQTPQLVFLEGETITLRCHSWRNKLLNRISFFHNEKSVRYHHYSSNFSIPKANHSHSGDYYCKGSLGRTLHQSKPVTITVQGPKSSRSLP
# T2: mouse FcγRIII (mouse, UniProt P08508 31-215)
# T2 construct: also called mFcγRIII; mFcgRIII
# T2 chain: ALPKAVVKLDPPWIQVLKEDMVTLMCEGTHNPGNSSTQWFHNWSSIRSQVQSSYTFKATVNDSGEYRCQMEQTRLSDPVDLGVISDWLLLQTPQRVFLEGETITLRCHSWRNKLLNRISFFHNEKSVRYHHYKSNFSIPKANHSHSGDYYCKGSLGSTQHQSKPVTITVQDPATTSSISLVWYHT
# B1: MB300 (antibody, mouse IgG1, kappa)
# heavy: QVQLQESGPGLVKPSETLSLTCAVSGHSISHDHAWSWVRQPPGEGLEWIGFISYSGITNYNPSLQGRVTISRDNSKNTLYLQMNSLRAEDTAVYYCARSLARTTAMDYWGEGTLVTVSSAKTTPPSVYPLAPGSAAQTNSMVTLGCLVKGYFPEPVTVTWNSGSLSSGVHTFPAVLQSDLYTLSSSVTVPSSTWPSETVTCNVAHPASSTKVDKKIVPRDCGCKPCICEDPEVSDVFIFPPKPKDVLTITLTPKVTCVVVDISKDDPEVQFSWFVDDVEVHTAQTQPREEQFNSTFRSVSELPIMHQDWLNGKEFKCRVNSAAFPAPIEKTISKTKGRPKAPQVYTIPPPKEQMAKDKVSLTCMITDFFPEDITVEWQWNGQPAENYKNTQPIMDTDGSYFVYSKLNVQKSNWEAGNTFTCSVLHEGLHNHHTEKSLSHSPGK
# light: not shown
# notes: copies: 2 + 2
# B2: MB324 (antibody, mouse IgG1, kappa)
# heavy: B1 heavy with P231E, S234E, V236H
# light: not shown
# notes: copies: 2 + 2
# B3: MB315 (antibody, mouse IgG1, kappa)
# heavy: B1 heavy with E229T, D230V, P231E, V236H
# light: not shown
# notes: copies: 2 + 2
# B4: MB313 (antibody, mouse IgG1, kappa)
# heavy: B1 heavy with E229T, D230V, P231E, S234E
# light: not shown
# notes: copies: 2 + 2
# B5: MB325 (antibody, mouse IgG1, kappa)
# heavy: B1 heavy with D230V, P231E, S234E, V236E
# light: not shown
# notes: copies: 2 + 2
# B6: MB317 (antibody, mouse IgG1, kappa)
# heavy: B1 heavy with E229T, D230V, S234E, V236H
# light: not shown
# notes: copies: 2 + 2
# B7: MB322 (antibody, mouse IgG1, kappa)
# heavy: B1 heavy with P231E, S234E
# light: not shown
# notes: copies: 2 + 2
# B8: MB307 (antibody)
# heavy: B1 heavy with E229T, D230A, V236E
# light: not shown
# notes: copies: 2 + 2
# B9: MB310 (antibody, mouse IgG1, kappa)
# heavy: B1 heavy with E229T, S234E
# light: not shown
# notes: copies: 2 + 2
# B10: MB304 (antibody, mouse IgG1, kappa)
# heavy: B1 heavy with D230V, V236H
# light: not shown
# notes: copies: 2 + 2
# B11: MB314 (antibody, mouse IgG1, kappa)
# heavy: B1 heavy with E229T, D230V, P231E, V236E
# light: not shown
# notes: copies: 2 + 2
# B12: MB311 (antibody, mouse IgG1, kappa)
# heavy: B1 heavy with E229T, V236E
# light: not shown
# notes: copies: 2 + 2
# B13: MB319 (antibody, mouse IgG1, kappa)
# heavy: B1 heavy with D230A, P231E, S234E
# light: not shown
# notes: copies: 2 + 2
# B14: MB301 (antibody, mouse IgG1, kappa)
# heavy: B1 heavy with D230V, P231E
# light: not shown
# notes: copies: 2 + 2
# B15: MB306 (antibody, mouse IgG1, kappa)
# heavy: B1 heavy with E229T, D230A, S234E
# light: not shown
# notes: copies: 2 + 2
# B16: MB309 (antibody, mouse IgG1, kappa)
# heavy: B1 heavy with E229T, P231E
# light: not shown
# notes: copies: 2 + 2
# B17: MB320 (antibody, mouse IgG1, kappa)
# heavy: B1 heavy with D230A, P231E, S234E, V236E
# light: not shown
# notes: copies: 2 + 2
# B18: MB323 (antibody, mouse IgG1, kappa)
# heavy: B1 heavy with P231E, S234E, V236E
# light: not shown
# notes: copies: 2 + 2
# B19: MB308 (antibody, mouse IgG1, kappa)
# heavy: B1 heavy with E229T, D230A, V236H
# light: not shown
# notes: copies: 2 + 2
# B20: MB318 (antibody, mouse IgG1, kappa)
# heavy: B1 heavy with D230V, P231E, S234E
# light: not shown
# notes: copies: 2 + 2
# B21: MB316 (antibody, mouse IgG1, kappa)
# heavy: B1 heavy with E229T, D230V, S234E, V236E
# light: not shown
# notes: copies: 2 + 2
# B22: MB303 (antibody, mouse IgG1, kappa)
# heavy: B1 heavy with D230V, V236E
# light: not shown
# notes: copies: 2 + 2
# B23: MB326 (antibody, mouse IgG1, kappa)
# heavy: B1 heavy with D230V, P231E, S234E, V236H
# light: not shown
# notes: copies: 2 + 2
# B24: MB321 (antibody, mouse IgG1, kappa)
# heavy: B1 heavy with D230A, P231E, S234E, V236H
# light: not shown
# notes: copies: 2 + 2
# B25: MB312 (antibody, mouse IgG1, kappa)
# heavy: B1 heavy with E229T, V236H
# light: not shown
# notes: copies: 2 + 2
# Assays:
# [1] = target: T1, mouse FcγRII; assay: SPR Biacore T200, KD ratio
# From the text: (§1) The antibody H chain variable region used was the variable region H237 (SEQ ID NO: 1) of the H chain VH3-IgG1 of the anti-IL-6 receptor antibody Fv4-IgG1 described in WO2009/125825. The antibody L chain commonly used was the L chain MRAL-k0 (SEQ ID NO: 2) of the anti-IL-6 receptor antibody tocilizumab. […] The resulting variant group was designated as MB110 variants. These variants were expressed and purified by the method of Reference Example 1 and evaluated for their binding to mFcγRII and mFcγRIII by the method of Reference Example 2 using Biacore T200.
# (§2) Each altered antibody was analyzed for its interaction with each Fcγ receptor prepared above using Biacore T100 (GE Healthcare Japan Corp.), Biacore T200 (GE Healthcare Japan Corp.), Biacore A100, or Biacore 4000. The running buffer used was HBS-EP+ (GE Healthcare Japan Corp.). The assay temperature was set to 25° C. The sensor chips used were chips prepared by immobilizing Protein L (ACTIGEN or BioVision) onto Series S Sensor Chip CM5 (GE Healthcare Japan Corp.) or Series S Sensor Chip CM4 (GE Healthcare Japan Corp.) by the amine coupling method.
# (§3) In order to calculate the KD value of each altered antibody for FcγR, kinetic analysis was conducted according to the following method: first, the antibody of interest was captured onto any of these chips and allowed to interact with mFcγR diluted with a running buffer. For the obtained sensorgram, the assay results were globally fit into the 1:1 Langmuir binding model using Biacore Evaluation Software to calculate an association rate constant ka (L/mol/s) and a dissociation rate constant kd (1/s). From these values, the dissociation constant KD (mol/L) was calculated.
# [2] = target: T2, mouse FcγRIII; assay: SPR Biacore T200, KD ratio
# From the text: as §1, §2, §3
Binder,Relative mFcγRII-binding activity (MB110 = 1) [1] [fold],relative mFcγRII-binding activity (mIgG1 = 1) [1] [fold],Relative mFcγRIII-binding activity (MB110 = 1) [2] [fold],relative mFcγRIII-binding activity (mIgG1 = 1) [2] [fold]
B1,4.25,52.3,1.41,5.7
B2,0.09,1.1,0.03,0.1
B3,0.48,5.9,0.2,0.8
B4,3.27,40.1,0.99,4
B5,0.38,4.7,0.15,0.6
B6,0.49,6,0.12,0.5
B7,0.75,9.2,0.31,1.3
B8,0.92,11.3,0.55,2.2
B9,3.16,38.8,0.96,3.8
B10,1.11,13.7,0.5,2
B11,0.58,7.1,0.27,1.1
B12,1.43,17.6,0.52,2.1
B13,4.07,50,0.89,3.6
B14,3.52,43.2,1.16,4.6
B15,5.36,65.8,1.05,4.2
B16,2.27,27.9,0.96,3.9
B17,0.26,3.2,0.11,0.4
B18,0.13,1.7,0.03,0.1
B19,2.14,26.3,0.67,2.7
B20,3.29,40.5,0.96,3.9
B21,0.61,7.4,0.31,1.2
B22,0.64,7.8,0.32,1.3
B23,0.33,4,0.06,0.2
B24,0.28,3.5,0.05,0.2
B25,4.51,55.4,0.87,3.5

# From patent US20150203577A1 (Chugai, published 2015)
